Measured values taken from patent publication US20220062372A1, “METHODS FOR TREATING DISEASE AND REDUCING DRUG-INDUCED LIVER INJURY IN PATIENT POPULATIONS” (Ten Peaks LLC, priority 2020, published 2022).
Where no end group is shown, it is not given here.

How the values were obtained:
[1] = biological target: T1, HLA-B*39:01 and β2-microglobulin (Homo sapiens, UniProt P01889, A182T/A93T/A95T/C349S/D138N/D201E/E176V/E187T/E204Q/K202T/Q94N/R155S/R180L/S121R/Y140F/Y91C); assay: Refolding of HLA complexes with synthetic peptides, G200 superdex chromatography (OD280); assay type: binding; conditions: for peptide binding and proper refolding of HLA-B*39:01 (peak in chromatogram): FIG. 2A-2D, FIG. 3; for binding to HLA-B*39:01 (results of the studies taken together): overall conclusion of Example 2, Tables 6 and 7 and FIGS. 2-4
T1 construct: made in house; host or cells: E. coli
Method: (§1) Refolding, characterization and purification of HLA complexes was performed as described (PMID: 12220628). Briefly, HLA-B*39:01 and β2-microglobulin were expressed in E. coli. Inclusion bodies were isolated, denatured in 8 M Urea and mixed with synthetic peptides derived from infliximab (Genscript) at a final concentration of 0.2 mg per ml protein, 6 M Urea, 20 mM Tris pH 8.0, 1 mM GSH, 10 mM GSSH for 24 hours, then dialyzed against 10 mM Tris pH 8.0 for 3 days. Samples concentrated to reduce the volume 10 fold, then loaded on a G200 superdex column calibrated with standards (http://www.bio-rad.com/webroot/web/pdf/1sr/literature/MSLIT-102E.pdf) in 10 mM Tris, 150 mM NaCl, at 0.75 ml per minute. OD280 was recorded for chromatographic analysis.
(§2) Results of the study are provided in FIGS. 2-4 and in Tables 6 and 7. In Tables 6 and 7, the IC50 (nM) for each peptide binding to HLA-B*39:01, HLA-B*05:01, HLA-B*35:01, or HLA-B*57:01 are shown in nM. […] In each of FIG. 2A-2D, the dotted line arrow points to the peak (or lack of a peak, for FIG. 2D) indicating peptide binding and proper refolding. […] The dotted line arrow points to the peak (or lack of a peak) indicating peptide binding and proper refolding. […] FIGS. 5A and 5B show an exemplary crystal structure of infliximab.

other HLAs = assay: Peptide binding to other HLAs (overall conclusion of Example 2); parameters: species or system human
Method: A study was conducted to identify interactions between peptides present on the infliximab antibody and HLA-B*39:01. Peptides corresponding to heavy and light chain sequences of infliximab (chain H and L in PDB code 4G3Y) were predicted to bind class I HLA molecules based on the Stabilized matrix method (SMM) implemented in Immune Epitope Database and Analysis Resource (IEDB). Peptides predicted to bind with estimated Kd values less than 0.5 μM were considered candidate binders for: HLA-B*39:01, HLA-B*15:01, HLA-B*35:01, and HLA-B*57:01.
as §1, §2

[2] = background description of the marketed drug; cited from earlier work
[3] = HLA analysis of infliximab-DILI cases vs. matched controls and reference populations; assay type: in vivo, human; conditions: for OR vs. Ref 2 / OR vs. Ref 1 / OR vs. Control / OR: DILI after infliximab; for OR vs. Control: 25 Caucasian cases vs 60 controls; for OR: cases vs controls
Method: Samples from 25 Caucasians, 3 Africans, and 3 outliers subjects that had been treated with infliximab and had experienced DILI were obtained. These are referred to as “cases” here. These samples were compared to a set of 60 matched Caucasian and 6 matched African controls. […] The controls were matched for age, sex, ethnicity, and BMI where possible. Statistical analyses were performed to identify from these cases HLA alleles that are risk factors for the development of DILI following infliximab exposure. Significant alleles were determined using Fisher's Exact Test (FET) (p<0.05).
As a secondary comparison, the HLA profiles of the 25 Caucasian cases were compared to reference populations available at www.allelefrequencies.net. For calculating population presence rates, reference list entries were found by searching for “Caucasoid” ethnic origin subjects of gold-standard studies involving ≥100 subjects for alleles of interest on allelefrequencies.net. Sample sizes for the references represent the reported number of subjects directly typed for a given locus (i.e. USA NMDP European Caucasian reports 1,242,890 subjects typed for HLA-B and DRB1, but only 395,676 subjects typed for HLA-C; see Table 3).
In order to test for significant differences between the 31 Infliximab-DILI cases and the reference populations using Fisher's Exact Test (FET), counts of individuals carrying at least one copy of the allele in question were calculated one of two ways. If the population presence rate was available, the number of individuals was estimated by rounding the product of the population presence rate and the sample size for that HLA locus in that study. If no population presence rate was available, this number was estimated using the allele frequency rate and assuming Hardy-Weinberg equilibrium (HWE). That is, if the allele frequency is p, the number of individuals with the allele in question were calculated as [p^2+2*p*(1−p)]*Nsamples, where p^2+2*p*(1−p) represents the percentage of carriers if HWE is assumed, and N samples is the reference sample size for that locus.
The data sets individually analyzed were: Caucasian typed and/or Caucasian imputed; African typed and/or African imputed; and All Ethnicities typed and/or All Ethnicities imputed. “Typed only” means that only subjects with directly typed HLA alleles were considered in the indicated analysis. “Imputed only” means that only the imputed alleles (i.e., the subject's HLA profile was determined using known proxies for HLA subtypes in their genetic sequence) for each subject were used in the indicated analysis. “Imputed+Typed” means that all subjects were considered; here, directly typed HLA alleles were used if available, otherwise, imputed alleles were used.

ACEVTHQGL [SEQ ID NO: 12]
peptide binding and proper refolding of HLA-B*39:01 (peak in chromatogram) [1]: lack of binding
binding to HLA-B*39:01 (results of the studies taken together) [1]: does not bind

YSLSSTLTL [SEQ ID NO: 5, YSLSSTLTL]
binding to HLA-B*39:01 (results of the studies taken together) [1]: bind to HLA-B*39:01 at significant levels
binding to other HLAs (results of the studies taken together) (other HLAs): not to other HLAs

CQQSHSWPF [SEQ ID NO: 9, CQQSHSWPF]
binding to HLA-B*39:01 (results of the studies taken together) [1]: bind to HLA-B*39:01 at significant levels
binding to other HLAs (results of the studies taken together) (other HLAs): not to other HLAs

LQSSGLYSL [SEQ ID NO: 10, LQSSGLYSL]
binding to HLA-B*39:01 (results of the studies taken together) [1]: bind to HLA-B*39:01 at significant levels
binding to other HLAs (results of the studies taken together) (other HLAs): not to other HLAs

TKGPSVFPL [SEQ ID NO: 2, TKGPSVFPL]
peptide binding and proper refolding of HLA-B*39:01 (peak in chromatogram) [1]: binding
binding to HLA-B*39:01 (results of the studies taken together) [1]: bind to HLA-B*39:01 at significant levels
binding to other HLAs (results of the studies taken together) (other HLAs): not to other HLAs

STYSLSSTL [SEQ ID NO: 7, infliximab light chain peptide]
binding to HLA-B*39:01 (results of the studies taken together) [1]: bind to HLA-B*39:01 at significant levels
binding to other HLAs (results of the studies taken together) (other HLAs): not to other HLAs

TQSPAILSV [SEQ ID NO: 6, TQSPAILSV]
binding to HLA-B*39:01 (results of the studies taken together) [1]: bind to HLA-B*39:01 at significant levels
binding to other HLAs (results of the studies taken together) (other HLAs): not to other HLAs

ACTEMRA: interleukin-6 (IL-6) receptor antagonist
hepatic adverse reactions reported in patients [2]: Serious cases of hepatic injury have been observed

Infliximab: mouse-human chimeric monoclonal antibody that binds to human tumor necrosis factor (TNF)
OR vs. Ref 2 ([3]; B*39:01, 25 Caucasian cases vs England Northwest): 13.72
OR vs. Ref 1 ([3]; B*39:01, 25 Caucasian cases vs USA NMDP European Caucasian): 8.33
OR vs. Ref 2 ([3]; C*12:03, 25 Caucasian cases vs UK Pop 3): 4.56
OR vs. Ref 1 ([3]; C*12:03, 25 Caucasian cases vs USA NMDP European Caucasian): 3.02
OR vs. Control ([3]; DQA1*3:03): 18.82
OR vs. Ref 2 ([3]; DQA1*3:03, 25 Caucasian cases vs Netherlands pop 2): 0.87
OR vs. Ref 1 ([3]; DQA1*3:03, 25 Caucasian cases vs USA Caucasian Bethesda): 0.92
OR vs. Control ([3]; DQB1*02:01): 4.93
OR vs. Ref 2 ([3]; DQB1*02:01, 25 Caucasian cases vs USA Philadelphia Caucasian): 3.57
OR vs. Ref 1 ([3]; DQB1*02:01, 25 Caucasian cases vs USA San Antonio Caucasian): 2.54
OR vs. Control ([3]; DRB1*03:01): 4.24
OR vs. Ref 1 ([3]; DRB1*03:01, 25 Caucasian cases vs USA NMDP European Caucasian): 2.25
OR vs. Ref 2 ([3]; DRB1*03:01, 25 Caucasian cases vs USA Philadelphia Caucasian): 3.57
OR ([3]; HLA-A*02:01, African imputed + typed): 91.00
OR ([3]; HLA-B*39:01, Caucasian imputed + typed): 25.33
OR ([3]; HLA-C*07:01, All ethnicities imputed + typed): 2.77
OR ([3]; HLA-C*12:03, Caucasian imputed + typed): 5.85
OR ([3]; HLA-DPB1*04:02, African imputed + typed): 25.67
OR ([3]; HLA-DQA1*03:01, All ethnicities imputed + typed): 0.28
OR ([3]; HLA-DQA1*03:03, All ethnicities imputed + typed): 16.33
OR ([3]; HLA-DQB1*02:01, All ethnicities imputed + typed): 5.21
OR ([3]; HLA-DRB*03:01, All ethnicities imputed + typed): 4.50
risk of DILI following infliximab administration in subjects with HLA-B*39:01 ([3]; in words): associated with a higher risk of DILI
hepatic adverse reactions reported in patients [2]: known to cause hepatotoxicity, and even severe hepatic reactions that can be fatal or necessitate a liver transplant

Certolizumab: anti-TNF antibody used for the treatment of autoimmune diseases
hepatic adverse reactions reported in patients [2]: Elevated liver enzymes and hepatitis have been reported

Guselkumab: IL-23 blocker
hepatic adverse reactions reported in patients [2]: Elevated liver enzymes have been reported

TYSABRI: integrin receptor antagonist indicated for multiple sclerosis and Crohn's disease
hepatic adverse reactions reported in patients [2]: Significant liver injury, including liver failure requiring transplant, has occurred in patients

GAZYVA: CD20-directed cytolytic antibody
hepatic adverse reactions reported in patients [2]: Hepatic enzyme elevations have occurred in CLL patients

THQGLSSPV [SEQ ID NO: 1, THQGLSSPV]
peptide binding and proper refolding of HLA-B*39:01 (peak in chromatogram) [1]: binding
binding to HLA-B*39:01 (results of the studies taken together) [1]: bind to HLA-B*39:01 at significant levels
binding to other HLAs (results of the studies taken together) (other HLAs): not to other HLAs

golimumab: TNF blocker
hepatic adverse reactions reported in patients [2]: reports of severe hepatic reactions including acute liver failure

ZINBRYTA: CD25 (IL-2 receptor)-specific antibody used to treat multiple sclerosis
hepatic adverse reactions reported in patients [2]: can cause severe liver injury, including autoimmune hepatitis and liver failure

ENTYVIO: integrin receptor antagonist for ulcerative colitis or Crohn's disease
hepatic adverse reactions reported in patients [2]: reports of elevations of transaminase and/or bilirubin

VQWKVDNAL [SEQ ID NO: 8, VQWKVDNAL]
binding to HLA-B*39:01 (results of the studies taken together) [1]: bind to HLA-B*39:01 at significant levels
binding to other HLAs (results of the studies taken together) (other HLAs): not to other HLAs

STSGGTAAL [SEQ ID NO: 11, infliximab heavy chain peptide]
binding to HLA-B*39:01 (results of the studies taken together) [1]: bind to HLA-B*39:01 at significant levels
binding to other HLAs (results of the studies taken together) (other HLAs): not to other HLAs
